The data set “two-hybrid” deals with the molecule itself. The experiment in a line: two-hybrid.
Data set [1] addresses T1, TnpA (IS608 transposase, Y1 HuH) (UniProt Q933Z0 1-155).
T1 sequence: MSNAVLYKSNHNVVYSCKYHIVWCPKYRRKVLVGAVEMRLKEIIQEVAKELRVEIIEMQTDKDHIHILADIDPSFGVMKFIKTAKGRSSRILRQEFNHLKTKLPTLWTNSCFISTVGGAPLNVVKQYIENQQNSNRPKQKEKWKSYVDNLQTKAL
Description: competition.

Data set [2] has as its target T1, TnpA (IS608 transposase, Y1 HuH). Description: EMSA. Background: Mobility shift assays separate free from complexed probe on a gel.
For data set [3] the target is unchanged. Description: EMSA. The source holds these as a separate data set.
A further data set addresses Ssb (UniProt P0AGE0 1-178). Description: EMSA.
In data set [4] the target is T1, TnpA (IS608 transposase, Y1 HuH). The experiment in a line: EMSA. The source holds these as a separate data set.

Ssb, sequence (P0AGE0 whole entry): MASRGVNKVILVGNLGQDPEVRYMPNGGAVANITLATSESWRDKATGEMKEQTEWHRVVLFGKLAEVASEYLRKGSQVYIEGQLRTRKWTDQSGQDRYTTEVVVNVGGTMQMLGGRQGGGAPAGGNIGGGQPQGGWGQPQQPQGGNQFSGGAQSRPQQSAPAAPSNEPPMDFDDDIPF

B1: TnpAIS608, transposase of IS608, BACTH hybrid (T25-TnpAIS608 or TnpAIS608-T18) (enzyme, Helicobacter pylori (IS608), UniProt Q933Z0 1-155, looked up)
chain: T1 sequence
Take B1: the “β-galactosidase activity, fold above negative control” value in the data set “two-hybrid” came to 5 fold.

B2: LE100 (structured_DNA)
DNA: CGGGCTGCAGGAATTCGATTTGCGCTAGTGCAAAAATTACCAAAACTAACGCCTTAAAGCCCCTAGCTTTTAGCTATGGGGATACAAGGCGAAACGCCTT
Turning to B2, the binding result in data set [1] is “binds”.

B3: ss60 (LE80 with 60-nt ss tail, S46) (structured_DNA)
DNA: CGCTAGTGCAAAAATTACCAAAACTAACGCCTTAAAGCCCCTAGCTTTTAGCTATGGGGATACAAGGCGAAACGCCTTCTGATGTCCTGTCGCCTCTGCCCGAAGACTCTAGATCGATTCAAGCTTCGCCTCTCAGCT
For the molecule B3, in data set [2], the binding result was “binds”.

B4: ds60 (S46 + S44) (mixed)
DNA 1: B3 DNA
DNA 2: AGCTGAGAGGCGAAGCTTGAATCGATCTAGAGTCTTCGGGCAGAGGCGACAGGACATCAG
For B4, the binding result in data set [3] is “binds”.

B5: ss target 125 nt (S56) (ssDNA)
DNA: GTGATGTCCTGTCGCCTCTGCCCGAAGACTCTATTACGATTCAAGCTTCGCCTCTCAGCTCCGATGATGTCGCTCATGCCTGCAGCAATGGCAACAACGAACGGCAAACTATTAACTGGCGAACT
For B5, the binding result with Ssb is reported as “binds”.

B6: fork / flap (L73 + L76l + L77) (mixed)
DNA 1: GTGATGACCTGTCGCCTCTGCCCGAAGACTCTAGATCGATACAAGCTACGCCTCTCAGCTCCGATGATGACGCTC
DNA 2: GAGCGTCATCATCGGAGCTGAGAGGCGTAGCTTGTATCTAGGAAGCCGCTGTAGCTCTCGCAATCAGCAGCCTTGTGCCG
DNA 3: CGGCACAAGGCTGCTGATTGCGAGAGCTACAGCGGCTTCCTA
As to B6, in data set [4], the binding result is on record as “binds”.

The record behind these values is publication PMC5027513 (Nucleic Acids Research, 2016).
